Positions count from the first letter of the chain named. In names and notes the source's numbering stands.
Legend:
[1] = biological target: T1, cy-IL-36α-Avi (in-vivo biotinylated) (cynomolgus monkey, limits assumed, site-specifically biotinylated in vivo on the C-terminal AviTag (BirA)); assay: SPR (Biacore 8K), in-vivo biotinylated IL-36-Avi captured on CAP chip, bispecific IgG injected, 25°C
T1 construct: also called biotinylated cyno IL-36α-Avi
T1 chain: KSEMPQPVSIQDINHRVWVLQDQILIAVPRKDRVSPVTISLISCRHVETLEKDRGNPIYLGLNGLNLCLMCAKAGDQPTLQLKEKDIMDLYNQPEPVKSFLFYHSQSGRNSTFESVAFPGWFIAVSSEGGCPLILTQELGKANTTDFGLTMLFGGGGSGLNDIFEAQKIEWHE
Procedure: (§1) Surface plasmon resonance (SPR) analysis was used to determine the binding affinity for human and cynomolgus monkey IL-36 (“hu-IL-36” and “cy-IL-36,” respectively) using a BIACORE™ 8K instrument as described in Example 2. […] Briefly, a 1:4 dilution of Biotin CAPture Reagent (GE Healthcare) into HBS-EP buffer (0.01 M HEPES pH 7.4, 0.15 M NaCl, 3 mM EDTA, 0.005% Surfactant P20) was applied to a CAP sensor chip at 2 μL/min flow rate. For kinetics measurements, 1 nM biotinylated human and cyno IL-36α-Avi, IL-36γ-Avi; 0.8 nM biotinylated human and cyno IL-36β-Avi were captured at 10 μL/min to achieve 15-25 response units in the second flow cell (FC2). FC1 was kept as a reference. […] The sensorgram was recorded and subject to reference and buffer subtraction before data analysis with the BIACORE® 8K Evaluation Software (version 1.1.1.7442). […] Association rates (kₒₙ) and dissociation rates (koff) were calculated using a simple one-to-one Langmuir binding model. The equilibrium dissociation constant (KD) was calculated as the ratio of koff/kₒₙ.

[2] = biological target: T2, cy-IL-36β-Avi (in-vivo biotinylated) (cynomolgus monkey, site-specifically biotinylated in vivo on the C-terminal AviTag (BirA)); assay: as above
T2 construct: also called cy-IL-36J-Avi [sic]; biotinylated cyno IL-36β-Avi
T2 chain: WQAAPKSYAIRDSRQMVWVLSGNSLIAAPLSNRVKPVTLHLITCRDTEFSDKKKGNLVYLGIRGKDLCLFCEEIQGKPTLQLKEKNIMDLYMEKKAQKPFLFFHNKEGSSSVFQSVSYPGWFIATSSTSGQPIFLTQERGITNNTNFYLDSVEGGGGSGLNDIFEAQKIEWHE
Procedure: as §1

[3] = biological target: T3, hu-IL-36α-Avi (in-vivo biotinylated) (human, site-specifically biotinylated in vivo on the C-terminal AviTag (BirA)); assay: as above
T3 construct: also called biotinylated human IL-36α-Avi
T3 chain: T1 chain with S2I, E3D, M4T, P7Q, V8G, I24T, V34M, S40A, A74V
Procedure: as §1

[4] = biological target: T4, hu-IL-36β-Avi (in-vivo biotinylated) (human, site-specifically biotinylated in vivo on the C-terminal AviTag (BirA)); assay: as above
T4 construct: also called biotinylated human IL-36β-Avi
T4 chain: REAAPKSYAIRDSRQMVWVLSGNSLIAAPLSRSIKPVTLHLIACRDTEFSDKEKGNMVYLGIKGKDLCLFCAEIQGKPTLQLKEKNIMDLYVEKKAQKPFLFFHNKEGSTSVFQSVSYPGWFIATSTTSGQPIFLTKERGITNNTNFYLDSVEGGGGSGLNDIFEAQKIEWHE
Procedure: as §1

[5] = biological target: T5, hu-IL-36γ-Avi (in-vivo biotinylated) (human, site-specifically biotinylated in vivo on the C-terminal AviTag (BirA)); assay: as above
T5 construct: also called biotinylated human IL-36γ-Avi
T5 chain: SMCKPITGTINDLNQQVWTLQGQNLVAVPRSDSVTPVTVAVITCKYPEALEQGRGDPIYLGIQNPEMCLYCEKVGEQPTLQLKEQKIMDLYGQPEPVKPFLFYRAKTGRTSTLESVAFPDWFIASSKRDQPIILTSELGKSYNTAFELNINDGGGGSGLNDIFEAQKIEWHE
Procedure: as §1

[6] = biological target: T6, cy-IL-36γ-Avi (in-vivo biotinylated) (cynomolgus monkey, limits assumed, site-specifically biotinylated in vivo on the C-terminal AviTag (BirA)); assay: as above
T6 construct: also called biotinylated cyno IL-36γ-Avi
T6 chain: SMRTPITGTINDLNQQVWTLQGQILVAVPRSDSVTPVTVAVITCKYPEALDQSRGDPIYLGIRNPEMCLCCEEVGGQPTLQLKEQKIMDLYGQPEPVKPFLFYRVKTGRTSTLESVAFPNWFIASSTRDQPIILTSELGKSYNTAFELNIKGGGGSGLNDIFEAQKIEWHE
Procedure: as §1

[7] = biological target: T2, cy-IL-36β-Avi (in-vivo biotinylated); assay: SPR (Biacore 8K), in-vivo biotinylated IL-36-Avi captured on CAP chip, bispecific IgG injected, 37°C
Procedure: as §1

[8] = biological target: T6, cy-IL-36γ-Avi (in-vivo biotinylated); assay: as above
Procedure: as §1

B1: mAb2.10/mAb6_2.7 multispecific common light chain antibody (IgG, knobs-into-holes, N297G) (bispecific antibody)
heavy 1: not shown
heavy 2: not shown
light: ESVLTQPPSVSGAPGQRVTISCTGSSSNIGAHYDVHWYQQLPGTAPKLLIYGNDNRPSGVPDRFSGSKSGTSASLAITGLQAEDEADYYCQSYDYSLSGYVFGGGTKLTVLGQPKAAPSVTLFPPSSEELQANKATLVCLISDFYPGAVTVAWKADSSPVKAGVETTTPSKQSNNKYAASSYLSLTPEQWKSHKSYSCQVTHEGSTVEKTVAPTECS
notes: tags removed; also called mAb2.10/mAb6_2.7 IgG; anti-IL-36 multispecific antibody
B1 was tested, and the Kd [1] was 1.93 nM, the koff [1] was 0.000335 s⁻¹ and the kon [1] was 174000 M⁻¹ s⁻¹. It also gave a Kd [2] of 0.97 nM, a koff [2] of 6.32e-05 s⁻¹ and a kon [2] of 65200 M⁻¹ s⁻¹. For the same binder, the Kd [3] was 1.17 nM, the koff [3] was 0.000157 s⁻¹ and the kon [3] was 134000 M⁻¹ s⁻¹. For the same binder, the Kd [4] was 0.63 nM, the koff [4] was 4.77e-05 s⁻¹ and the kon [4] was 76000 M⁻¹ s⁻¹. For the same binder, the Kd [5] was 0.72 nM, the koff [5] was 0.000122 s⁻¹ and the kon [5] was 171000 M⁻¹ s⁻¹. It also gave a Kd [6] of 0.79 nM, a koff [6] of 0.00013 s⁻¹ and a kon [6] of 165000 M⁻¹ s⁻¹. It also gave a Kd [7] of 2.51 nM, a koff [7] of 0.000218 s⁻¹ and a kon [7] of 86900 M⁻¹ s⁻¹. It also gave a Kd [8] of 0.94 nM, a koff [8] of 0.000148 s⁻¹ and a kon [8] of 158000 M⁻¹ s⁻¹.

Reference: US20230235040A1 (ALMIRALL S A, published 2023)
